Laboratory results reported in paper PMC12809806, “Structural Analysis of Tilvestamab in Complex with AXL” (ACS Omega, 2025).

Legend:
[1] = biological target: T1, Human AXL-Fc containing the entire extracellular domain of human AXL (Homo sapiens, UniProt P30530); experiment: SEC-SAXS; SWING beamline (SOLEIL), HPLC mode; BioSEC-3 300 or BioSEC-5 1000 column in PBS or 10 mM histidine, 150 mM NaCl, pH 6; proteins alone and mixed, in solution; conditions: both partners purified
T1 construct: AXL receptor tyrosine kinase, human, entire extracellular domain (two Ig-like and two fibronectin type III domains); Dimer through the C-terminal Fc; also called dimeric AXL-Fc; source: bought: Evitria (Switzerland); not shown: Fc, C-terminal, kept
T1 sequence (P30530 26-451): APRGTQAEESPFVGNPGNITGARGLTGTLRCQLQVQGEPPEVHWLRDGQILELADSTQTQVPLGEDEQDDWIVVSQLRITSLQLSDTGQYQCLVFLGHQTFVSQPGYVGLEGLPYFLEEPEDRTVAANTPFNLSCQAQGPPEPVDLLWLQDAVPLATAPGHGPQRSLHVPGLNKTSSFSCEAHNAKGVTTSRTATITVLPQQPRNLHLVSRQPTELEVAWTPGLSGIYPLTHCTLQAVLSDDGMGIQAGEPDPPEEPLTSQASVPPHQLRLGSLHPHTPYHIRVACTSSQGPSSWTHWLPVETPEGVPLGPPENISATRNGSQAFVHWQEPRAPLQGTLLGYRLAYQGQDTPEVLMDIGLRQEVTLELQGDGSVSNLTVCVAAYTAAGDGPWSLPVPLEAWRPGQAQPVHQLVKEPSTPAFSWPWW

[2] = biological target: T2, Monomeric sAXL, the soluble extracellular domain of AXL (human, UniProt P30530); experiment: as above; conditions: both partners purified
T2 construct: AXL receptor tyrosine kinase, human, soluble extracellular domain released from AXL-Fc by papain; also called monomeric AXL extracellular domain; source: papain digestion of AXL-Fc (Evitria), followed by protein A purification; not shown: Fc, C-terminal, cleaved
T2 sequence (P30530 26-451): as above

B1: Fab fragment of tilvestamab (Fab, V domains shown)
VH: EVQLVESGGGLVQPGGSLRLSCAASGYSFTDFYINWVRQAPGKGLEWVARIFPGGDNTYYNEKFKGRFTLSADTSKSTAYLQMNSLRAEDTAVYYCARRGLYYAMDYWGQGTLVTVSS
VL: DIQMTQSPSSLSASVGDRVTITCRSSQSLVHSNGIPYLHWYQQKPGKAPKLLIYRVSNRFSGVPSRFSGSGSGTDFTLTISSLQPEDFATYYCSQGTHVPPTFGQGTKVEIK
notes: heavy chain (HC) of the Fab; light chain (LC) of the Fab; also called tilvestamab Fab; source: papain proteolysis of tilvestamab (immobilized papain), MabSelect SuRe column
How did the “stoichiometry N” value [1] turn out when B1 was run?
The value was 1 Fab per AXL-Fc chain (2:2).

What about the “stoichiometry N” value [2] of the same binder?
Its value is 1 Fab per sAXL (1:1).
